This passage reports koff, kon and Kd results from patent US20190225669A1.

Common to all, as to details: remark: other sources report otherwise
Assay [1] addresses GDF8, O14793. The assay is described as follows: Biacore SPR.
Assay [2] concerns the target GDF8, O14793. The assay is described as follows: Biacore SPR; † very low signal. Background: SPR reads the build-up and loss of mass on a sensor chip optically.
The target of assay [3] is T1, BMP7, P18075.
T1 chain: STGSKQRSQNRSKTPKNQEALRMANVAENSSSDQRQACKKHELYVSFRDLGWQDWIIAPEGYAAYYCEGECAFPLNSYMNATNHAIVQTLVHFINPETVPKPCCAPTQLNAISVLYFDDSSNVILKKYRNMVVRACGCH
Put plainly: Biacore SPR.

Sequence of GDF8, O14793 (O14793 267-375 limits assumed): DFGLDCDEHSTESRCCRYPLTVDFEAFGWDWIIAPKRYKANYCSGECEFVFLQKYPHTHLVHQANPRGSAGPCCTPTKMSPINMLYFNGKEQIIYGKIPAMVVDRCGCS

B1: ALK4-Fc homodimer, P36896 24-126 (Fc fusion, UniProt P36896 24-126, looked up, not shown: a dimerising Fc or GST)
chain: SGPRGVQALLCACTSCLQANYTCETDGACMVSIFNLDGMEHHVRTCIPKVELVPAGKPFYCLSSEDLRNTHCCYTDYCNRIDLRVPSGHLKEPEHPSMWGPVE
The term koff denotes the rate constant with which the complex falls apart. Read a low koff as slow dissociation. The kon is a measure of how fast the partners come together. A higher kon goes with fast association. Usually Kd stands for the constant that tells how readily two partners part at equilibrium. In assay [1], B1 came in with a koff of 0.0019 s⁻¹ and a kon of 130000 M⁻¹ s⁻¹. In assay [2], this molecule displayed a Kd of 15 nM.

B2: ALK3-Fc homodimer, P36894 24-152 (Fc fusion, UniProt P36894 24-152, looked up, not shown: a dimerising Fc or GST)
chain: QNLDSMLHGTGMKSDSDQKKSENGVTLAPEDTLPFLKCYCSGHCPDDAINNTCITNGHCFAIIEEDDQGETTLASGCMKYEGSDFQCKDSPKAQLRRTIECCRTNLCNQYLQPTLPPVVIGPFFDGSIR
B2: in assay [3], the Kd is 15 nM, the koff was found to be 0.018 s⁻¹ and the kon was 1.2e+06 M⁻¹ s⁻¹.
